Reference: US8530235B2, “Medium that supports culture of an oocyte and modulation of granulosa cell apoptosis” (Adelaide Research & Innovation Pty Ltd., priority 2005, dated 2013)

How the values were obtained:
cumulus-oocyte complexes = test: Study IV: oocyte developmental competence after IVM, IVF and embryo culture; format: cell-based, Bovine; details: for blastocyst yields with exogenous factor / effect on cleavage rate: Experiments 3 & 4; for blastocyst yields with exogenous factor: 175 ng/ml GDF9 or 10% v/v BMP15; for effect on cleavage rate: 4 μM SB-431542, 175 ng/ml GDF9, 10% v/v BMP15, 10% v/v 293H
Experimental: Unless otherwise specified, all chemicals and reagents were purchased from Sigma (St Louis, Mo.). Bovine ovaries were collected from local abattoirs and transported to the laboratory in warm saline (30-35° C.). COCs were aspirated from antral follicles (3 to 5 mm diameter) using an 18-gauge needle and a 10-ml syringe containing ˜2 ml aspiration medium (Hepes-buffered. Tissue Cultured Medium-199; TCM-199. ICN Biochemicals, Irvine, Calif., USA) supplemented with 50 μg/ml kanamycin, 0.5 mM sodium pyruvate, 50 μg/ml heparin and 4 mg/ml fatty acid-free bovine serum albumin (FAF-BSA; ICPbio Ltd, Aukland, NZ). Intact COCs with compact cumulus vestments>˜5 cell layers and evenly pigmented cytoplasm were selected under a dissecting microscope and washed twice in Hepes-buffered TCM-199 and once in Hepes-buffered TCM-199 supplemented with 10% fetal calf serim (FCS) (Invitrogen, Carlsbad, Calif.). The basic medium for oocyte maturation was Bovine VitroMat (Cook Australia, Eight Mile Plains, Qld, Australia), a medium based on the ionic composition of bovine follicular fluid. […] Complexes were cultured in pre-equilibrated 300 ? l drops overlaid with mineral oil and incubated at 39° C. with 5% CO2 in humidified air for 24 hour. […]
Recombinant mouse GDF9 and recombinant ovine BMP15 were produced and partially purified in-house as previously described using transfected 293 human embryonic kidney cell lines (293H) originally donated by O. Ritvos (University of Helsinki). Control conditioned medium (hereafter designated ‘293H’) was produced from untransfected 293H cells and subjected to the same chromatography procedures as GDF9 and BMP15 conditioned media.
Consequently, SB-431542 potently antagonizes the ALK 4/5 ligands; TGF-β1, the activins and GDF9, without affecting BMP signalling (Inman et al., 2002; Gilchrist et al., 2006). […] Follistatin-288 was generously donated by S. Shimasaki (University of California San Diego, USA) and we have previously shown that this binding protein antagonizes the bioactivities of native OSFs and recombinant BMP15 in CCs.
In vitro production of embryos was undertaken using defined, serum-free media (Bovine Vitro series of media, Cook Australia). Frozen semen from a single bull of proven fertility was used in all experiments. Briefly, thawed semen was layered over a discontinuous (45%: 90%) Percoll gradient (Amersham Bioscience) and centrifuged (RT) for 20-25 mins at 700 g. The supernatant was removed and the sperm pellet was washed with 500 μl Bovine VitroWash (Cook Australia) and centrifuged for a further 5 minutes at 200 g. Spermatozoa were resuspended with IVF medium (Bovine VitroFert, Cook Australia), then added to the fertilization media drops (Bovine VitroFert, supplemented with 0.01 mM heparin, 0.2 mM penicillamine and 0.1 mM hypotaurine) at a final concentration of 1×106 spermatozoa/ml. COCs were inseminated at a density of 10 μl of IVF medium per COC for 24 h, at 39° C. in 6% CO2 in humidified air.
CCs were removed by gentle pipetting 23-24 h post insemination and five presumptive zygotes were transferred into 20 μl drops of pre-equilibrated Cook Bovine VitroCleave medium (Cook Australia) and cultured under mineral oil at 38.5° C. in 7% O2, 6% CO2, balance N2, for five days (day 1 to day 5).
On Day 5, embryos were transferred in groups of 5-6 to 20 μl drops of pre-equilibrated Bovine VitroBlast (Cook Australia) at 38.5° C. overlaid with mineral oil and cultured to Day 8. Embryos were assessed for quality at Day 8 according to the definitions presented in the Manual of the International Embryo Transfer Society (Stringfellow, 1998) and were performed independently and blinded by an experienced bovine embryologist.
Cell counts were performed using a modified version of the technique described by (Fouladi-Nashta et al., 2005). […]

Bcl-2 and Bax proteins = test: Western blot of Bcl-2 and Bax expression in OOX cumulus cells; format: cell-based, Bovine; details: OOX 24 h; for ratio of Bcl-2 to Bax: 132 ng/ml GDF-9, 10% v/v BMP-15 or 35 DO/well
Experimental: Following culture treatments, OOX complexes were lysed in […] RIPA lysis buffer (10 mM Tris [pH 7.4], 150 mM NaCl, 1 mM EDTA, 1% Trinton X-100 and stored at −80° C., for detection of apoptotic proteins using the sensitive Enhanced Chemiluminescence (ECl) Advance system (Amersham Biosciences, Ontario, Canada). Thawed lysates were mixed with 4× loading buffer containing 100 mM Dithiothretol (DTT) and subjected to SDS-PAGE (12% polyacrylamide gel). Proteins were subsequently electrotransferred to nitrocellulose membranes (Hybond-ECl, Amersham life Science, Ontario, Canada.) in 25 mM Tris-192 mM glycine containing 20% methanol. Blots were blocked in 20 mM Tris (pH 7.6) containing 13.7 mM NaCl, 1% Tween-20, and 2% blocking agent (provided in ECl Advance Kit) for 1 hr at RT, then incubated overnight with Bcl-2 or Bax rabbit polyclonal antibodies (0.35 μg/ml; Santa Cruz Biotechnology, Calif., USA) at 4° C., followed by incubation with horseradish peroxidase-conjugated anti-rabbit antibody (1:200 000; Silemus laboratories, Melbourne, Australia). Images were then scanned using a flat bed scanner and the intensity of Bcl-2 and Bax bands in each sample was quantitated by the ImageJ Imaging System Software version 1.3 (National Institutes of Health, USA).
This experiment was conducted to confirm that treatment effects on CC apoptosis, as assessed by TUNEL, are concomitant with changes in expression of key proteins regulating cell death and survival. OOX were cultured for 24 h untreated, or treated with 132 ng/ml GDF-9, 10% v/V BMP-15, co-cultured with 35 DO/well, or 10% 293H (control conditioned medium), and then subjected to Western blot for analysis of Bcl-2 and Bax expression.

B1: BMP-15: Recombinant ovine BMP-15 produced in-house in transfected 293H cells, partially purified by hydrophobic interaction chromatography; dosed as % v/v (protein, UniProt Q9MZE2 269-393, looked up)
Bone morphogenetic protein 15: QAGSIASEVPGPSREHDGPESNQCSLHPFQVSFQQLGWDHWIIAPHLYTPNYCKGVCPRVLHYGLNSPNHAIIQNLVSELVDQNVPQPSCVPYKYVPISILLIEANGSILYKEYEGMIAQSCTCR
Question: For B1, which “enhancement of development to the blastocyst stage compared to 293H-treated COCs” value (cumulus-oocyte complexes; 10% v/v BMP15 during IVM) is on record?
Answer: 30%

Question: And the “enhancement of development to the blastocyst stage compared to control COCs” value (cumulus-oocyte complexes; 10% v/v BMP15 during IVM)?
Answer: 16%

Question: What about the “blastocyst yields with exogenous factor” value (cumulus-oocyte complexes) of the same molecule?
Answer: increased blastocyst yields

Question: And the “effect on cleavage rate” value (cumulus-oocyte complexes)?
Answer: did not significantly alter cleavage rates

Question: And the “ratio of Bcl-2 to Bax” value (Bcl-2 and Bax proteins)?
Answer: alter the ratio of Bcl-2 to Bax in favour of cell survival

Question: What about the “expression of Bax protein in CC” value (Bcl-2 and Bax proteins; 10% v/v BMP-15 or 35 DO/well) of the same molecule?
Answer: barely detectable

Question: And the “expression of Bcl-2 protein in CC” value (Bcl-2 and Bax proteins; 10% v/v BMP-15 or 35 DO/well, compared to untreated or GDF-9)?
Answer: significantly (P<0.001) higher

B2: GDF-9: Recombinant mouse GDF-9 produced in-house in transfected 293H cells, partially purified by HIC (protein, UniProt Q07105 307-441, looked up)
Growth/differentiation factor …: GQKAIRSEAKGPLLTASFNLSEYFKQFLFPQNECELHDFRLSFSQLKWDNWIVAPHRYNPRYCKGDCPRAVRHRYGSPVHTMVQNIIYEKLDPSVPRPSCVPGKYSPLSVLTIEPDGSIAYKEYEDMIATRCTCR
Question: How did the blastocyst yield (cumulus-oocyte complexes; Experiment 2, 175 ng/ml GDF9, with or without 10% v/v BMP15) turn out when B2 was run?
Answer: increased (P<0.05) blastocyst yield compared to 293H-treated COCs, but not compared to COCs cultured alone

Question: What about the “blastocyst yields with exogenous factor” value (cumulus-oocyte complexes) of the same molecule?
Answer: increased blastocyst yields

Question: What about the “effect on cleavage rate” value (cumulus-oocyte complexes) of the same molecule?
Answer: did not significantly alter cleavage rates

Question: What about the “ratio of Bcl-2 to Bax” value (Bcl-2 and Bax proteins) of the same molecule?
Answer: no effect
